One may read the Kd as the free concentration of one partner at which half of the binding sites on the other are occupied at equilibrium, for simple one-to-one binding.

We go through 2 molecules from doi:10.1101/2021.08.19.456998, “Structures of the Human SPAK and OSR1 Conserved C-Terminal (CCT) Domains” (bioRxiv, 2021).

Where no end group is shown, it is not given here. The star is where a group is joined. Biotin = O=C1N[C@H]2[C@H](CS[C@H]2CCCCC(=O)*)N1

Common to all, as to details: both partners purified
The target of test [1] is T1, Biotin-C6-SEEGKPQLVGRFQVTSSK (N-terminally biotinylated 18-mer RFQV peptide derived from WNK4) (human).
T1 construct: With No Lysine kinase 4 (WNK4), 18-mer with the RFQV motif; also called biotinylated 18-mer peptide; biotin 18-mer peptide; source: synthetic peptide, bought: GL Biochem, Shanghai Ltd
T1 peptide: {Biotin-C6}-SEEGKPQLVGRFQVTSSK
Nature of the test: grating-coupled interferometry (Creoptix WAVE); traditional multicycle kinetics; biotin-C6-18-mer peptide captured on streptavidin chip, cleaved OSR1 as analyte, 25 µM in 1:3 dilutions (six points); 25°C, HBS EP.

Test [2] deals with T1, Biotin-C6-SEEGKPQLVGRFQVTSSK …. Put plainly: grating-coupled interferometry (Creoptix WAVE); waveRAPID; biotin-C6-18-mer peptide captured on streptavidin chip (about 400 pg/mm^2), cleaved SPAK or OSR1 as analyte at 2 µM; 25°C, HBS EP; heterogeneous ligand model for SPAK.
Test [3] has as its target T2, biotin-SPAK (uncleaved human SPAK CCT domain, residues 441-545, biotinylated on the AviTag) (human, biotin on the lysine of the AviTag (…)).
T2 construct: STE20/SPS1-related proline/alanine-rich kinase (SPAK), human, conserved C-terminal (CCT) domain, residues 441-545; the TEV site was not cut in this form; also called hSPAK-CCT; source: E. coli BL21-CodonPlus (DE3)-RIL, purified (HisTrap, SEC), biotinylated with BirA; not shown: His6, N-terminal, kept; AviTag, N-terminal, kept
Nature of the test: grating-coupled interferometry (Creoptix WAVE); traditional multicycle kinetics; biotin-SPAK or biotin-OSR immobilised on streptavidin chip, 18-mer peptide as analyte, 50 µM in 3-fold dilutions (six points); 25°C, HBS EP; one-to-one fit.

For test [4], the target named is T2, biotin-SPAK (uncleaved human SPAK CCT …). Put plainly: grating-coupled interferometry (Creoptix WAVE); waveRAPID; biotin-SPAK or biotin-OSR immobilised on streptavidin chip (about 1000 pg/mm^2), 18-mer peptide as analyte at 5 µM; 25°C, HBS EP (10 mM HEPES pH 7.4, 150 mM NaCl, 3 mM EDTA, 0.005% Tween20); 1:1 kinetic model, global fit.
Test [5] addresses T3, biotin-OSR (uncleaved human OSR1 CCT domain, residues 423-527, biotinylated on the AviTag) (human, biotin on the lysine of the AviTag (…)).
T3 construct: Oxidative Stress Responsive 1 (OSR1) kinase, human, conserved C-terminal (CCT) domain, residues 423-527; the TEV site was not cut in this form; also called hOSR1-CCT; hOSR-CCT; source: E. coli BL21-CodonPlus (DE3)-RIL, purified (HisTrap, SEC), biotinylated with BirA; not shown: His6, N-terminal, kept; AviTag, N-terminal, kept
The test is described as above.

T3 sequence (chain, as listed by the source): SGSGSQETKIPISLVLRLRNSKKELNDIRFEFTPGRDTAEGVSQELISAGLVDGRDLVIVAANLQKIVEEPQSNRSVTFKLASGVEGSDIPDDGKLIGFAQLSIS

B1: cleaved OSR1 (human OSR1 CCT domain, residues 423-527, tags removed with TEV protease) (domain or fragment)
chain: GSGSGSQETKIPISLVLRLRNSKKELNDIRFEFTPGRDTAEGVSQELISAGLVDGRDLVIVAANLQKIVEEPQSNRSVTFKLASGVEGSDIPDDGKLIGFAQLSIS
notes: glycine of the TEV site (ENLYFQ/G) left after cleavage; OSR1, human, CCT domain, residues 423-527; also called cleaved hOSR1-CCT; hOSR1-CCT; source: E. coli BL21-CodonPlus (DE3)-RIL, purified (HisTrap, SEC, TEV cleavage, SEC in HBS EP); not shown: His6, N-terminal, cleaved; AviTag, N-terminal, cleaved
Regarding B1, the Kd was 6.6 µM in test [1] and 2.1 µM in test [2].

B2: 18-mer RFQV peptide derived from WNK4 (SEEGKPQLVGRFQVTSSK), unbiotinylated (peptide)
peptide: SEEGKPQLVGRFQVTSSK
notes: With No Lysine kinase 4 (WNK4), 18-mer with the RFQV motif; also called 18-mer peptide; RFQV 18-mer peptide; source: synthetic peptide, bought: GL Biochem, Shanghai Ltd
For B2, the Kd in test [3] came to 1.16 µM; in test [4] it was 1.1 µM; in test [5] it was 2.5 µM.
